Measured values published in article doi:10.1101/2024.09.29.615664.

Molecular target: reconstituted mononucleosome with unmodified H3K56 (UniProt P68431)
Experiment: pull-down

In the case of “MutSβ (MSH2-MSH3 complex), purified (from UniProt P43246;P20585)”, the fold of MSH3 pulled down against the H3K56ac-nucleosome is reported as 4 fold.
